Article PMC1277818, “Substrate specificity analysis of protein kinase complex Dbf2-Mob1 by peptide library and proteome array screening” (BMC Biochemistry, 2005)

T1: FHHDbf2-H6Mob1TM9 (Saccharomyces cerevisiae, UniProt P22204+P40484)
T1 construct: made in house; host or cells: Hi5 insect cells (baculovirus)
T1 sequence (P22204 1-572): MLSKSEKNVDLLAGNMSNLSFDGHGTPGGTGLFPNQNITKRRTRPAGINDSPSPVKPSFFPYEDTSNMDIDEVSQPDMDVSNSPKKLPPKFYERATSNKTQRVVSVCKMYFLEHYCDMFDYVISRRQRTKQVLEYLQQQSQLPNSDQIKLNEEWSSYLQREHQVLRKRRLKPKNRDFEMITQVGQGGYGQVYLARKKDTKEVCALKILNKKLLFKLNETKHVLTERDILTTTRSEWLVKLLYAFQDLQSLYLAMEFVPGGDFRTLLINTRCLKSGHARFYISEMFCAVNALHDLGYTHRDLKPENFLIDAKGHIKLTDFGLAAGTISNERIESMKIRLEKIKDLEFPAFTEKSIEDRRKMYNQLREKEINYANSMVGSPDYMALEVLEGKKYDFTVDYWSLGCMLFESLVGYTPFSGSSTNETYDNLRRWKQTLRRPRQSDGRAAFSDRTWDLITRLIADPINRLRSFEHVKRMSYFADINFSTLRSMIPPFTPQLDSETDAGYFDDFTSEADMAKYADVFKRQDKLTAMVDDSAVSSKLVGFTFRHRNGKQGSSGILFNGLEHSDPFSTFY
T1 sequence (P40484 1-314 partner): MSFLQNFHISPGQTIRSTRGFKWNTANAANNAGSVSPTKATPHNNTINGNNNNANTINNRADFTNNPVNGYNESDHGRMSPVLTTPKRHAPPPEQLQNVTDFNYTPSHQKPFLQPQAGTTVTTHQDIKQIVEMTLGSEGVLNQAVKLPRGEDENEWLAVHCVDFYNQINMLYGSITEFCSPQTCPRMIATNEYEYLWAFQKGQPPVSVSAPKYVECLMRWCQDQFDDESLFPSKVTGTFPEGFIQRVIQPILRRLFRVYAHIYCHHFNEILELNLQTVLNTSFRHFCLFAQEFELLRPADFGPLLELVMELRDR

B1: YBR118W: GST fusion yeast protein on proteome chip (protein, UniProt P02994 2-458, looked up)
Elongation factor 1-alpha: GKEKSHINVVVIGHVDSGKSTTTGHLIYKCGGIDKRTIEKFEKEAAELGKGSFKYAWVLDKLKAERERGITIDIALWKFETPKYQVTVIDAPGHRDFIKNMITGTSQADCAILIIAGGVGEFEAGISKDGQTREHALLAFTLGVRQLIVAVNKMDSVKWDESRFQEIVKETSNFIKKVGYNPKTVPFVPISGWNGDNMIEATTNAPWYKGWEKETKAGVVKGKTLLEAIDAIEQPSRPTDKPLRLPLQDVYKIGGIGTVPVGRVETGVIKPGMVVTFAPAGVTTEVKSVEMHHEQLEQGVPGDNVGFNVKNVSVKEIRRGNVCGDAKNDPPKGCASFNATVIVLNHPGQISAGYSPVLDCHTAHIACRFDELLEKNDRRSGKKLEDHPKFLKSGDAALVKFVPSKPMCVEAFSEYPPLGRFAVRDMRQTVAVGVIKSVDKTEKAAKVTKAAQKAAKK
modifications: GST tag
notes: GST fusion yeast protein on proteome chip
B2: YNL101W: GST fusion yeast protein on proteome chip (protein, UniProt P50944 1-713, looked up)
Vacuolar amino acid …: MVTNNGDGEHLGIRRNGNLRHPSNNMKIPRRAQSTVLNSNPFYSRKYSMSTLTPRDICRSVDSRVFVDMSSPNFQTLEDPHRDEIINSVRLNYLNSSKRSSVSHGNEAIPRVNPTKNSSASTIAAANVDSDDDETNLSSAGGDITHDIYKLVKAEDPKRLRRPRSMENVTPKIEHHTKLSSASGLNVPGGFRREFIVNKKRQEHQLNDSASSDFTSHESDSINQSSPSSNQDIDKVPFLTRNFLEFLYVFGHFAGESFEDDFIPDSSNMMIRGEDERSALLSRPDHMKVLPSAKGTTSTKKVFLILLKSFIGTGVLFLPNAFHNGGLFFSVSMLAFFGIYSYWCYYILVQAKSSCGVSSFGDIGLKLYGPWMRIIILFSLVITQVGFSGAYMIFTAKNLQAFLDNVFHVGVLPLSYLMVFQTIIFIPLSFIRNISKLSLPSLLANFFIMAGLVIVIIFTAKRLFFDLMGTPAMGVVYGLNADRWTLFIGTAIFAFEGIGLIIPVQDSMRNPEKFPLVLALVILTATILFISIATLGYLAYGSNVQTVILLNLPQSNIFVNLIQLFYSIAIMLSTPLQLFPAIKIIENKFFPKFTKIYVKHDDLTTRVELRPNSGKLNWKIKWLKNFIRSIIVIIVVSIAYFGSDNLDKFVSVIGSLACIPLVYIYPSMLHLRGNSLPETKGEFWRFKPMLDTILIFFGIASMLYTSYQSIFGV
modifications: GST tag
notes: as for B1
B3: YDL019C: GST fusion yeast protein on proteome chip (protein, UniProt Q12451 2-1283, looked up)
Oxysterol-binding protein …: SREDLSIAEDLNQVSKPLLKVKLLEVLGQGDFKHLKALVDNEFQPKDDPSVQQVLNLILHYAVQVAPILLIKEIVAHWVDQVGDEKSSSKSDDGIHLDLNYQDENGNTPLHLAAAQSRSDVISFLLSQKSINDCVKNKAHQQPLDMCKDLNVAQMIQLKRDDYFLETVHSLRAAMNKRDFSKLDSIWKNPRNLNLLDINGIDPETGTTLLYEYSQKKDIEMCQWLLKHGAEATVKDGKGRSPLDLVKNIKLPAKPSNNVTPEIKLKNLLEKNLREQAIVHEDVASSKPPTYKGFLKKWTNFAHGYKLRWFILSGDGNLSYYKDQSHVDRPRGTLKVSTCRLHIDSSEKLNFELLGGITGTTRWRLKGNHPIETTRWVNAIQSAIRFAKDKEILNKKKAVPPSLALKNKSPALISHSKTQGSLPEASQYYQHTLHKEVIQPSSVSLYRRPSNNLSVVSSEIQLNDNLTESGKRFVSKMIENRLDGSKTPVGVHTGSALQRVRSSNTLKSNRSMQSGSGVASPIDKVPNGANLSQSNTTTGSTASLSDNNYIDNFEGDEANSDDEEEDLGINFDRDEEYIKAQYGPYKEKLDMYEQAISIELSSLIELIEQEEPSPEVWLTIKKSLINTSTIFGKLKDLTYKRDKRLVDMVSKQGDVNNVWVQSVKELEMELSNKTERLASIDKERRGLKKILHKKLLESHATAGNKESLENDKEQESDTTASTLGQIAKFISATKEEDEASDADEFYDAAELVDEVTELTEAHPEISTAAAPKHAPPPVPNETDNDSQYVQDEKSKIESNVEKTSQKFEKQNNLVTEDEPKTDQSLKNFKAEDKESQVKEKTKEIASSVIGEKTIVAVTTVQKRKEEYLLKEGSYLGYEDGIRKRLSMDKDDRPKISLWAVLKSMVGKDMTRMTLPVTFNEPTSLLQRVAEDLEYSELLDQAATFEDSTLRTLYVAAFTASSYASTTKRVAKPFNPLLGETFEYSRPDKQYRFFTEQVSHHPPISATWTESPRWDFWGESFVDTKFNGRSFNVKHLGLWHIKLRPNDNEKEELYTWKKPNNTVIGILIGNPQVDNHGEVNVVNHTTGDHCKLYFKARGWRSSGAYEITGEVYNKKKQKVWILGGHWNEAIFAKKVVKDGDLSLEKTRTAASAGNGPTDDGTKFLIWKANDRPEEPFNLTPFAITLNAPQPHLLPWLPPTDTRLRPDQRAMEDGRYDEAGDEKFRVEEKQRAARRKREENNLEYHPQWFVRDTHPITKAKYWRYTGKYWVKRRDHDLKDCGDIF
modifications: GST fusion
notes: as for B1
B4: YNR006W: GST fusion yeast protein on proteome chip (protein, UniProt P40343 1-622, looked up)
Vacuolar protein …: MSVSTPSELDALIEQATSESIPNGDLDLPIALEISDVLRSRRVNPKDSMRCIKKRILNTADNPNTQLSSWKLTNICVKNGGTPFIKEICSREFMDTMEHVILREDSNEELSELVKTILYELYVAFKNDSQLNYVAKVYDKLISRGIKFPEKLTLSNSPTAMFDSKTPADWIDSDACMICSKKFSLLNRKHHCRSCGGVFCQEHSSNSIPLPDLGIYEPVRVCDSCFEDYDLKRHDDSKKSKKHRHKRKKDRDYSTPEDEEELIRKAIELSLKESRNSASSEPIVPVVESKNEVKRQEIEEEEDPDLKAAIQESLREAEEAKLRSERQKASRQMQPQQPSPQPQPIHSVDLSDEEKDSIYMFASLVEKMKSRPLNEILEDSKLQNLAQRVFASKARLNYALNDKAQKYNTLIEMNGKISEIMNIYDRLLEQQLQSINLSQQYTLPQVPSDPYNYLTENVQNPAESYQTPPLQQLSSHQYKPQQDVSRQQSVKANSSPTTNIDHLKTIDVTPHAQQKPQSHVELAPSDPPYPKEEAEDEGTQAVQDEESSTQESRERPYPVETENGETSINKRPQGITRYDFPTVPARKFVQPESTVPLPASSSEIPIKEERPPSPQEELLIEL
modifications: GST fusion
notes: as for B1
B5: YMR239C: GST fusion yeast protein on proteome chip (protein, UniProt Q02555 1-471, looked up)
Ribonuclease 3: MGSKVAGKKKTQNDNKLDNENGSQQRENINTKTLLKGNLKISNYKYLEVIQLEHAVTKLVESYNKIIELSPNLVAYNEAVNNQDRVPVQILPSLSRYQLKLAAELKTLHDLKKDAILTEITDYENEFDTEQKQPILQEISKADMEKLEKLEQVKREKREKIDVNVYENLNEKEDEEEDEGEDSYDPTKAGDIVKATKWPPKLPEIQDLAIRARVFIHKSTIKDKVYLSGSEMINAHNERLEFLGDSILNSVMTLIIYNKFPDYSEGQLSTLRMNLVSNEQIKQWSIMYNFHEKLKTNFDLKDENSNFQNGKLKLYADVFEAYIGGLMEDDPRNNLPKIRKWLRKLAKPVIEEATRNQVALEKTDKLDMNAKRQLYSLIGYASLRLHYVTVKKPTAVDPNSIVECRVGDGTVLGTGVGRNIKIAGIRAAENALRDKKMLDFYAKQRAAIPRSESVLKDPSQKNKKRKFSDTS
modifications: GST fusion
notes: as for B1
B6: YIL135C: GST fusion yeast protein on proteome chip (protein, UniProt P40463 1-436, looked up)
Protein VHS2: MDTSNHNQDHDSHVAAQRENDNNYMPPSPSMSESSMIFERNVEDPSYLYKTVSNNAANSLSRQSSRTSLFNHNNSSNRNFHNLSQRSSAVNLHLQPSRTNESIASYQTYNPDFVVQTPLDHRRTLENFVPPALDAGCSIVTDDTTGLDDVDMVYSRRPSTIGLDRALGRTRSLSSQSFDNETSPAHPRSPNDHGSRLLRFYSYADMLSDDNNNNVSNATSTSSTANPLRRPPMQGHYSFSSSLLNSPSHLPSPPSASASPPQHMNFTNPFIISRRYSNTTINNANGGTSAGSTTGAALSRSPSNQQYLLKQQRSPSGSARSRRNSNRPGSAANIMIGKPKSKFHMESSGSEGFSSEEEDNTMIERDKLNLKQKLQSQLAQPPSIANMVNDNHNNTNKHKNTINNNIKNSPAFTNSNPSSKSNSNSTITSMNPDTTK
modifications: GST tag
notes: as for B1

The molecules below were run against T1, FHHDbf2-H6Mob1TM9 (assay: Yeast proteome chip assay). Settings: Table 3; GST fusion proteins on proteome chip, [γ-33P]ATP, chips in duplicate, computer analysis.
Assay type: biochemical
Description: The relatively low sequence complexity of the Dbf2 phosphorylation motif diminished the power of using genome-wide bioinformatics screens to identify putative substrates. Accordingly, we carried out a proteome array screen to identify putative yeast substrates. […] After taking into account the proteins phosphorylated in the negative controls, 67 proteins were determined to be putative Dbf2-Mob1 substrates (Table 3).
Yeast proteome microarrays were prepared as previously described. Overexpressed GST-tagged yeast proteins were purified from ~4,400 yeast strains and spotted on slides. To determine the optimal amount of kinase to use for probing proteome chips, we performed trial assays as described (J. Ptacek et al., submitted). […] The full proteome array was probed with 4 μl ^FHHDbf2-^H6Mob1^TM9 in 200 μl of DKB supplemented with [γ-^33P]ATP. As a control, ^FHHDbf2(N305A)-^H6Mob1^TM9 was used to probe the proteome array. […] To control for autophosphorylated proteins, the proteome array was probed with 200 μl of DKB supplemented with [γ-^33P]ATP. Proteome chips were assayed in duplicate in each case. Data analysis was performed as described (J. Ptacek et al., submitted). Briefly, signals were analyzed by a computer algorithm designed to normalize background and identify signals as positive if 3 of 4 spots (each protein is spotted twice on each slide and each kinase or control was tested on 2 slides) were 2 standard deviations above background and the fourth spot was 1.5 standard deviations above background.

First: B1
Second: B2
The “Slide Signal (after normalization)” value of the first is higher: 2.619 for the first, 2.1486 for the second.

Going from B3 to B4, the “Slide Signal (after normalization)” value rises from 0.9962 to 1.1429.

Compared with B5, B6 is lower in “Slide Signal (after normalization)” value: 1.593 for the first, 1.116 for the second.

Same assay, conditions: Table 4, the 25 proteins with highest signal relative to protein amount; [γ-33P]ATP, chips in duplicate

Going from B1 to B2, the “Slide Signal (after normalization)” value falls from 2.619 to 2.1486.

Going from B3 to B4, the “Slide Signal (after normalization)” value rises from 0.9962 to 1.1429.

Compared with B5, B6 is lower in “Slide Signal (after normalization)” value: 1.593 for the first, 1.116 for the second.
